Reference: publication PMC11712212 (Chemical Science, 2024)
Bridge positions count the residues as written; N and C are the ends. Ends that are not written are not given here. Peptide text beside a SMILES is read from it.

Experiments:
[1] = molecular target: DV12 ([…]) (Homo sapiens, UniProt P63165); assay: Biolayer interferometry; type: binding
[2] = molecular target: QTGG (Homo sapiens, UniProt P63165); assay: Isothermal titration calorimetry; type: binding
[3] = molecular target: T1, QTGG, short SUMO-1 remnant after trypsin and Glu-C digestion; assay: ITC
T1 sequence (peptide): QTGG

[4] = molecular target: SUMO-1 protein (UniProt P63165 1-97); assay: BLI
Sequence of SUMO-1 protein (P63165 1-97): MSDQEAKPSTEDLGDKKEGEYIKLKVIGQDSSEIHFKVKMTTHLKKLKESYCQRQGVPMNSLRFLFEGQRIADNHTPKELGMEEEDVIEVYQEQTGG

`CC(C)C[C@H](NC(=O)[C@@H](N)CCCCN)C(=O)N[C@@H](CCCNC(=N)N)C(=O)N[C@@H](Cc1c[nH]c2ccccc12)C(=O)N[C@H](C(=O)N[C@@H](CC(=O)O)C(=O)N[C@@H](Cc1ccc(O)cc1)C(=O)N[C@@H](C)C(=O)N[C@@H](CCCCN)C(=O)N[C@@H](CCCCN)C(=O)N[C@@H](CCCNC(=N)N)C(=O)N[C@@H](CCCCN)C(=O)O)[C@@H](C)O` [PEP-4, KLRWTDYAKKRK] (H-KLRWTDYAKKRK-OH) was tested, and the Kd [1] was 2 nM.

`CC(C)C[C@@H]1NC(=O)[C@H](Cc2c[nH]c3ccccc23)NC(=O)[C@H](CCCCN)NC(=O)[C@H](CCC(=O)O)NC(=O)[C@@H]2CCCN2C(=O)[C@@H](N)CSSC[C@@H](C(=O)O)NC(=O)[C@H]([C@@H](C)O)NC(=O)CNC1=O` [CP-1, CPEKWLGTC] (HELM PEPTIDE1{C.P.E.K.W.L.G.T.C}$PEPTIDE1,PEPTIDE1,1:R3-9:R3$$$V2.0; N-terminus and C-terminus assumed) showed a Kd [2] of 71.8 nM.

CPEKWLGTC (disulfide 1-9) [CP-1 (…), cystine-linked cyclic peptide] showed a Kd [3] of 71.8 nM.

CMTPNPTTC (disulfide 1-9) [CP-2 (…)] showed a Kd [3] of 1800 nM.

KLRWTDYAKKRK [PEP-4 (KLRWTDYAKKRK)] was tested, and the Kd [4] was 43.7 nM.
